Paper PMC3955203

Target: Blinkin (UniProt Q8NG31)
Assay: GST pull-down from mitotic lysate
Conditions: sites Y207

| Substance | binding against the reference (reference: GST-Bub3 WT without His-PKM2) | binding against the reference (reference: GST-Bub3 WT with His-PKM2, no PEP) | binding against the reference (reference: GST-Bub3 WT, PEP, no His-PKM2) |
| --- | --- | --- | --- |
| Bub3 (from UniProt O43684) GST-Bub3 WT incubated with His-PKM2 | stronger |  |  |
| Bub3 (from UniProt O43684) GST-Bub3 WT with His-PKM2 and PEP |  | stronger | stronger |
